The test has as its target Purified human C1q, P02745;P02746;P02747. Put plainly: FACS-based C1q binding assay. The note with it: for response: read off a plot.

As to 4A8 Parental E345R; E430G, the concentration for a half-maximal effect (EC50) (commonly the concentration giving half of the maximal effect) is 26.1 nM. Where the note is “parent: est. 65000”, the response worked out at 750000 MFI. As to EY6A Parental E345R; E430G, the EC50 worked out at 42.1 nM. Also, the response (parent: est. 75000) stood at 830000 MFI.

Consider REGN10933 Parental E345R; E430G, for which the half-maximal effective concentration (EC50) is 4 nM. For the same substance, the response (parent: est. 42000) was found to be 800000 MFI. As to REGN10987 Parental E345R; E430G, the half-maximal effective concentration (EC50) was determined as 10.5 nM. The response (parent: est. 85000) came to 830000 MFI. On to S230 parental IgG1 E345R; E430G, for which the response (parent: est. 30000) is 50000 MFI. In the case of S309 parental IgG1 E345R; E430G, the half-maximal effective concentration (EC50) worked out at 10 nM. Further, the response (parent: est. 42000) was determined as 800000 MFI.

The values are drawn from publication PMC9114490.
